Data published in PMC3466776 (Biochemistry, 2012).
No end group written: not given here.

Legend:
Assay in all cases: stopped-flow fluorescence
[1] = target: wild-type calmodulin (His-CaM) (rat, UniProt P0DP29 1-149)
[2] = target: N-lobe mutant of calmodulin (CaM12) (rat, UniProt P0DP29 1-149, D20 to alanine | D56 to alanine)
[3] = target: C-lobe mutant of calmodulin (CaM34) (rat, UniProt P0DP29 1-149, D93 to alanine | D129 to alanine)

Row | binding result [1] | binding result [2] | binding result [3] | Binder
1 | binds | binds |  | GSRPQRLLWQTAVRHITEQRFIHGH-NH2 [AC8-Nt peptide]
2 | binds |  | binds | YSLAAVVLGLVQSLNRQRQKQLLNE-NH2 [AC8-C2b peptide]
3 | binds | binds |  | IKPAKRMKFKTVCYLLVQLMHCRKMFKA (C-terminal amide) [AC1-C1b peptide]
